# Tested on: T1, piggyBac transposase (Trichoplusia ni)
# T1 sequence: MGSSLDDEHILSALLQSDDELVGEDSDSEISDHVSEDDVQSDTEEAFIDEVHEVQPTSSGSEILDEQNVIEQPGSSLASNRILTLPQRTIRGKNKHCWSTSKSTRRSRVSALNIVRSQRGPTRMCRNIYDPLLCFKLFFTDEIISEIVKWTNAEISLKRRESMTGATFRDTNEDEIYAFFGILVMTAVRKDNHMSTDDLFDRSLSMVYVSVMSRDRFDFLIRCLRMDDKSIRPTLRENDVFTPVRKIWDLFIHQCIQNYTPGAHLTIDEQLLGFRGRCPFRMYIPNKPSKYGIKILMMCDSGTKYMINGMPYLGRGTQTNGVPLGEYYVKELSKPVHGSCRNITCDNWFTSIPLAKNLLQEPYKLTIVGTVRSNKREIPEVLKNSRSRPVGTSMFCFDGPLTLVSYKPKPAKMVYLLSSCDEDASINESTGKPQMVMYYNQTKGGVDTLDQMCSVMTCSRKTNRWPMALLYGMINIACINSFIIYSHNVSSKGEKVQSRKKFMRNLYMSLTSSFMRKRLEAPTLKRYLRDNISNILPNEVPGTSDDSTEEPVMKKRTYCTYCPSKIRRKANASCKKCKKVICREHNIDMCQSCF
# Assay: cell_activity
# Settings: RFP+ HEK-293 at 28 days
sequence,measurement,value
CCCTAGAAAGATAGTCTGCGTAAAATTGACGCATGCATGCGTCAATTTTACGCATGATTATCTTTAACGTACGTCACAATATGATTATCTTTCTAGGG (double strand),activity,0.72%
